Data: patent US20220195054A1 (BERGEN TEKNOLOGIOVERF RING, published 2022)
Where two headings read alike, the source gives them in different places.

Assays:
[1] = target: T1, human Axl receptor on cells (MDA-MB-231, HeLa, LX2, Axl-positive cells) (human, UniProt P30530 26-894); assay: flow cytometry titration on MDA-MB-231 cells, Kd of the fitted curve, the axis of the fitted curves is Conc. (nM) [table under the graph]
T1 construct: Endogenous receptor of human tumour cell lines
Experimental: (§1) The cells were collected by centrifugation at 200 g for 5 min. The antibody was diluted for total concentration in PBS containing 0.2% bovine serum albumin (BSA). Cell staining was performed using 200 μL of cell suspension comprising 200 000 cells for 30 min at room temperature. […] After two washing steps with PBS/0.2% BSA, the cells were resuspended in 200 μL PBS and kept on ice before analysis on Fortessa flow cytometer (BD Biosciences).

[2] = target: T1, human Axl receptor on cells …; assay: flow cytometry on MDA-MB-231 cells, APC-conjugated anti-human IgG F(ab')2 detection
[3] = target: T2, recombinant human Axl-Fc chimera (rhAxl-Fc; R&D Systems, Cat. no. 154-AL) (human, UniProt P30530 26-451); assay: SPR (Biacore 3000, 25 C), rhAxl-Fc immobilised; ln2/koff
T2 construct: Bought construct; also called rhAxi-Fc; Hu-Axl-Fc; Fc part of the bought chimera not given

[4] = target: T2, recombinant human Axl-Fc chimera …; assay: SPR (Biacore 3000, 25 C), rhAxl-Fc immobilised (190 RU), antibody as analyte, 1:1 Langmuir
Experimental: (§2) The precise kinetic analysis was performed using BIA evaluation software and curve fitting according to 1:1 Langmuir binding model.

[5] = target: T1, human Axl receptor on cells …; assay: flow cytometry on MDA-MB-231 cells, APC-conjugated anti-human IgG F(ab')2 detection; remark: listed apart in the source
Experimental: as §1

[6] = target: T2, recombinant human Axl-Fc chimera …; assay: SPR two-injection competition on immobilised Axl-Fc; first injection
[7] = target: T2, recombinant human Axl-Fc chimera …; assay: SPR (Biacore 3000, 25 C), rhAxl-Fc immobilised (190 RU), antibody as analyte, koff/kon
Experimental: as §2

[8] = target: T1, human Axl receptor on cells …; assay: cell-based or functional assay

B1: chimeric monoclonal antibody 10G5 (mouse variable/human constant IgG1) (antibody, V domains shown)
VH: QVQLQQSGAELVRPGASVKLSCKASGYSFTDFYINWVRQRPGQGLEWIARIFPGGDNTYYNEKFKGKATLTAEESSSTAYIQLSSLTSEDSAVYFCARRGLYYAMDYWGQGISVTVSS
VL: DVLMTQTPLSLPVSLGDQASISCRSSQSLVHSNGIPYLHWYLQKPGQSPKLLIYRVSNRFSGVPDRFSGSGSGTDFTLKISRVEAEDLGVYFCSQGTHVPPTFGGGTKLEIK
notes: also called c10G5; C10G5
Kd [1]: 0.0922 nM
EC50 (read off the curve) [2]: ~0.2 nM
Half-life (t1/2) [3]: 1.14 h
koff [4]: 0.000169 s⁻¹
kon [4]: 1.64e+06 M⁻¹ s⁻¹
EC50 (read off the curve) [5]: ~0.1 nM
1st Response [6]: ~170
Kd [7]: 0.103 nM
EC50 (pM), killing of MDA-MB-231 cells by antibody coupled to Saporin (FabFc-ZAP), XTT/PMS viability after 72 hrs [8]: 5.71 pM
